Target: Alexa488-labeled Nuc165 (human)
Assay: fluorescence polarisation; HPF1 titrated from 16.8 μM to 0 μM into 5 nM Alexa488-labeled Nuc165; 50 mM Tris-HCl pH 8, 50 mM NaCl, 1 mM MgCl2, 0.1 mM EDTA, 0.1 mM TCEP, 0.01% NP-40; Hill model

Kd: 1450 nM
B1: Histone PARylation Factor 1 (natural protein)
chain: MVGGGGKRRPGGEGPQCEKTTDVKKSKFCEADVSSDLRKEVENHYKLSLPEDFYHFWKFCEELDPEKPSDSLSASLGLQLVGPYDILAGKHKTKKKSTGLNFNLHWRFYYDPPEFQTIIIGDNKTQYHMGYFRDSPDEFPVYVGINEAKKNCIIVPNGDNVFAAVKLFLTKKLREITDKKKINLLKNIDEKLTEAARELGYSLEQRTVKMKQRDKKVVTKTFHGAGLVVPVDKNDVGYRELPETDADLKRICKTIVEAASDEERLKAFAPIQEMMTFVQFANDECDYGMGLELGMDLFCYGSHYFHKVAGQLLPLAYNLLKRNLFAEIIEEHLANRSQENIDQLAA

From article PMC7608914
